Results reported in patent US20250042994A1.
One block for each binder: values may come before it.

Molecular target: cynomolgus monkey CD19 on peripheral blood B cells (cynomolgus monkey (Macaca fascicularis))
Assay: FACS, cynomolgus PBMC, CD20+ B cells

Proportion of chimeric antibody positive cells to B cells (%) at 1 nM: 2% | Proportion of chimeric antibody positive cells to B cells (%) at 10 nM: 1% | Proportion of chimeric antibody positive cells to B cells (%) at 100 nM: 12%
B1: F3.23.10 (antibody, human IgG1, V domains shown)
VH: EFQLQQSGPELVKPGASVKISCKASDYSFTDYNMNWVKQSNGASLEWIGIINPNFGSTSYNQKFKGKATLTVDQSSSTAFMQLNSLTSEDSAVYYCARSEYYGSSGFAYWGQGTLVTVSA
VL: DVVVTQTPLSLPVSFGDQVSISCRSSQSLVNSYGNTYLSWYLHKPGQSPQLLIYGISNRFSGVPDRFSGSGSGTDFTLKITTIKPEDLGMYYCLQGTHQPWTFGGGTKLEIK

Proportion of chimeric antibody positive cells to B cells (%) at 1 nM: 2% | Proportion of chimeric antibody positive cells to B cells (%) at 10 nM: 3% | Proportion of chimeric antibody positive cells to B cells (%) at 100 nM: 9%
B2: F4.180.1 (antibody, human IgG1, V domains shown)
VH: EVQLQQSAPELVKPGASVKMSCKTSGYTFTENIIHWVKQTHGKSLEWIGGINPDNGGTSYHQKFKGRTTLTIDKSSSTAYMELRSLTSDDSAVFFCARQAPLYWYFDIWGAGTTVTVSS
VL: DIVLTQSPASLAVSLGQRATISCRASESVDSYGNSLMHWFQQKPGQPPRLLIYRASNLESGIPARFSGSGSRTDFTLTITPVEADDVATYYCQQSNEDPWTFGGGTKLEIK
